Test results taken from patent US20260176343A1 (UCL BUSINESS, published 2026).
Changes are numbered by the printed parent chain.

B1: AR_TCE-1 (bispecific antibody)
chain: QVQLVESGGGVVQPGRSLRLSCAASGFIFSEHNMAWVRQAPGKGLEWVATISDDGRNTYYRDSMRGRFTISRDNSKNTLYLQMNSLRAEDTAVYYCTSHRYNLFDSWGQGTMVTVSSGGGGSGGGGSGGGGSDIQMTQSPSSLSASVGDRVTITCKASQNIDRYLNWYQQKPGKAPKRLIYNTNKLQTGVPSRFSGSGSGTEFTLTISSLQPEDFATYYCLQYNSLPLTFGQGTKLEIKSGGGGSIEPDSESQGGGGSQVQLVQSGAEVKKPGSSVKVSCKASGYTFTRYTMHWVRQAPGQGLEWMGYINPSRGYTNYNQKFKDRVTITADKSTSTAYMELSSLRSEDTAVYYCARYYDDHYCLDYWGQGTMVTVSSVEGGSGGSGGSGGSGGVDDIQMTQSPSSLSASVGDRVTITCSASSSVSYMNWYQQKPGKAPKRLIYDTSKLASGVPSRFSGSGSGTEFTLTISSLQPEDFATYYCQQWSSNPFTFGQGTKVEIKHHHHHH
B2: AR_TCE-3 (bispecific antibody)
chain: B1 chain with E251L, S252E, Q253E
B3: NVG-111 (bispecific antibody)
chain: QVQLVESGGGVVQPGRSLRLSCAASGFIFSEHNMAWVRQAPGKGLEWVATISDDGRNTYYRDSMRGRFTISRDNSKNTLYLQMNSLRAEDTAVYYCTSHRYNLFDSWGQGTMVTVSSGGGGSGGGGSGGGGSDIQMTQSPSSLSASVGDRVTITCKASQNIDRYLNWYQQKPGKAPKRLIYNTNKLQTGVPSRFSGSGSGTEFTLTISSLQPEDFATYYCLQYNSLPLTFGQGTKLEIKSGSGGGGSQVQLVQSGAEVKKPGSSVKVSCKASGYTFTRYTMHWVRQAPGQGLEWMGYINPSRGYTNYNQKFKDRVTITADKSTSTAYMELSSLRSEDTAVYYCARYYDDHYCLDYWGQGTMVTVSSVEGGSGGSGGSGGSGGVDDIQMTQSPSSLSASVGDRVTITCSASSSVSYMNWYQQKPGKAPKRLIYDTSKLASGVPSRFSGSGSGTEFTLTISSLQPEDFATYYCQQWSSNPFTFGQGTKVEIKHHHHHH

Biological target: ROR1 on Jeko-1 cells (UniProt Q01973 30-937, limits assumed)
Experiment: cell-based or functional assay

Going from B1 to B2, the “maximum target cell death, long-term (120 h) killing assay, 1 µg/mL, 1:10 effector to target ratio” value falls from 58.7% to 55.7%.

With B3 the “maximum target cell death, long-term (120 h) killing assay, 1 µg/mL, 1:10 effector to target ratio” value was 60.5%.
